Experimental data from paper PMC4169324 (The FEBS journal, 2014).

How the values were obtained:
SEC = target: the molecule itself; experiment: SEC
crystal structure = target: the molecule itself; experiment: crystal structure

B1: BcRsaM protein (product of bcam1869) from B. cenocepacia J2315, native (natural protein)
chain: SNAMTSPLLHPVPGPSPDGYVRLSEGALAALVLDHVASGLDPSLLAELRDNAIDARLAGYTEWHRTAGAGVAYVTVGWDWYLERATGTFVIAGGDVRSNVMAIDAKGADIGMLRTAAALAARLAALDWPAAVASALLGHNDAYHAGPTLQ
In the case of B1, the “stoichiometry N” value (SEC) is reported as 2.

B2: SeMet-labeled BcRsaM protein from B. cenocepacia J2315 (natural protein)
chain: SNAMTSPLLHPVPGPSPDGYVRLSEGALAALVLDHVASGLDPSLLAELRDNAIDARLAGYTEWHRTAGAGVAYVTVGWDWYLERATGTFVIAGGDVRSNVMAIDAKGADIGMLRTAAALAARLAALDWPAAVASALLGHNDAYHAGPTLQ
modifications: selenomethionine (SeMet-labeled; 70 mg/L SeMet in the culture for crystals X4)
B2: binds (crystal structure).
